Test results from article PMC8278288 (Frontiers in Immunology, 2021).
One block for each binder: values may come before it.

Legend:
[1] = biological target: T1, IL-7 receptor ectodomain (rhIL-7Rα) (human, UniProt P16871 21-239); test: SPR
T1 chain: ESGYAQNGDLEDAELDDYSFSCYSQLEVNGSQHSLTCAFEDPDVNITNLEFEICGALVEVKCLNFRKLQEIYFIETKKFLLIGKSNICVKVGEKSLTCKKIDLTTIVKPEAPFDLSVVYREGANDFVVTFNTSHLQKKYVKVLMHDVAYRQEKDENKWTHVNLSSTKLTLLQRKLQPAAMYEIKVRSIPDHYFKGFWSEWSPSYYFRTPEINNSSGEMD

[2] = biological target: T2, N-terminal fragment of MMP-9-cleaved human IL-7 produced in HEK-293 cells (IL-7*) (human, UniProt P13232 26-128, N-linked oligosaccharides (sites shown in Figure 1D)); test: non-reducing SDS-PAGE; IL-7 digested with MMP-9, electrophoresis with SDS and without reducing agent, compared with reducing conditions; conditions: both partners purified
T2 construct: Interleukin-7, human, N-terminal fragment up to Ala128 (MMP-9 cleavage between Ala128 and Leu129); source: bought: Biolegend (produced in human HEK-293 cells), then digested with MMP-9
T2 sequence (looked up): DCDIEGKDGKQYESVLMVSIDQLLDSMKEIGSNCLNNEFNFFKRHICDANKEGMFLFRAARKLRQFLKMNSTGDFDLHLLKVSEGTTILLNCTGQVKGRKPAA

[3] = biological target: T3, N-terminal fragment of MMP-9-cleaved human IL-7 produced in E. coli (IL-7*) (human, UniProt P13232 26-128); test: as above; conditions: both partners purified
T3 construct: Interleukin-7, human, N-terminal fragment up to Ala128 (MMP-9 cleavage between Ala128 and Leu129); source: bought: Peprotech (produced in E. coli), then digested with MMP-9
T3 sequence (looked up): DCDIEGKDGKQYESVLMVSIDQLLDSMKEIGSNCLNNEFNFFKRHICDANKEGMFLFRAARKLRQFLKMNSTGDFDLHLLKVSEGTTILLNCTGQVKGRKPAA

[4] = biological target: T4, N-terminal fragment of MMP-9-cleaved His-tagged human IL-7 produced in insect cells (IL-7*) (human, UniProt P13232 26-128, N-linked glycosylation (partially glycosylated; sites shown in Figure 1D)); test: pull-down; His-tagged IL-7 (C-terminal tag) digested with MMP-9, histidine tag pull-down with Ni-NTA magnetic microbeads under native conditions; bound and non-bound proteins resolved by reducing SDS-PAGE; conditions: both partners purified
T4 construct: Interleukin-7, human, N-terminal fragment up to Ala128 (MMP-9 cleavage between Ala128 and Leu129); also called N-terminal fragment of IL-7; source: bought: Novus (produced in insect cells), then digested with MMP-9
T4 sequence (looked up): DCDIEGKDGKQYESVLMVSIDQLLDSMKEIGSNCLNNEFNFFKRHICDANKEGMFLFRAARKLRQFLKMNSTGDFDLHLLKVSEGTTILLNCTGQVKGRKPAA

Kd [1]: 64 nM
B1: MMP-9-cleaved recombinant human IL-7 produced in E. coli (cIL-7) (complex)
chain 1: DCDIEGKDGKQYESVLMVSIDQLLDSMKEIGSNCLNNEFNFFKRHICDANKEGMFLFRAARKLRQFLKMNSTGDFDLHLLKVSEGTTILLNCTGQVKGRKPAA
chain 2: LGEAQPTKSLEENKSLKEQKKLNDLCFLKRLLQEIKTCWNKILMGTKEH

binding result [2]: binds
B2: C-terminal fragment of MMP-9-cleaved human IL-7 produced in HEK-293 cells (IL-7**) (domain or fragment, UniProt P13232 129-177, looked up)
chain: LGEAQPTKSLEENKSLKEQKKLNDLCFLKRLLQEIKTCWNKILMGTKEH
notes: Interleukin-7, human, C-terminal fragment from Leu129 (neo-N-terminus LGEAQ); source: bought: Biolegend (produced in human HEK-293 cells), then digested with MMP-9

binding result [3]: binds
B3: C-terminal fragment of MMP-9-cleaved human IL-7 produced in E. coli (IL-7**) (domain or fragment, UniProt P13232 129-177, looked up)
chain: LGEAQPTKSLEENKSLKEQKKLNDLCFLKRLLQEIKTCWNKILMGTKEH
notes: Interleukin-7, human, C-terminal fragment from Leu129 (neo-N-terminus LGEAQ); source: bought: Peprotech (produced in E. coli), then digested with MMP-9

binding result [4]: binds
B4: C-terminal fragment of MMP-9-cleaved His-tagged human IL-7 produced in insect cells (IL-7**) (domain or fragment, UniProt P13232 129-177, looked up)
chain: LGEAQPTKSLEENKSLKEQKKLNDLCFLKRLLQEIKTCWNKILMGTKEH
notes: Interleukin-7, human, C-terminal fragment from Leu129 (neo-N-terminus LGEAQ); Held on nickel beads by the C-terminal His tag; source: bought: Novus (produced in insect cells), then digested with MMP-9; not shown: His tag, C-terminal, kept

Kd [1]: 290 nM
B5: MMP-9-cleaved recombinant human IL-7 produced in human HEK-293 cells (cIL-7) (complex)
chain 1: DCDIEGKDGKQYESVLMVSIDQLLDSMKEIGSNCLNNEFNFFKRHICDANKEGMFLFRAARKLRQFLKMNSTGDFDLHLLKVSEGTTILLNCTGQVKGRKPAA
chain 2: LGEAQPTKSLEENKSLKEQKKLNDLCFLKRLLQEIKTCWNKILMGTKEH
modifications: N-linked oligosaccharides (sites shown in Figure 1D)
